Results from paper PMC7049163 (Proceedings of the National Academy of Sciences of the …, 2020).

Biological target: the molecule itself
Test: crystal structure

B1: copper-containing nitrite reductase from Geobacillus thermodenitrificans (enzyme)
chain: ESKNKTAATQQSEPNVIAAHKGVNQAPVPLKMERVGPHDVHIEMTAQITDIEIDKGKIYKAWTFNGQAPGPLVVVNEGDTIHFTLKNMDPVVPHSMDFHAVHASPSKDFIDVMPNKSGTFTYPANKPGVFMYHCGTKPVLQHIANGMHGVIIVKPKNGYPTDKEVDREYVLIQNEWYKYNDMNDFQNGVPSYVVFSSKALKPGDPNTNGDTFTLKEKPLLAKVGEKIRLYINNVGPNEVSSFHVVGTVFDDVYLDGNPNNHLQGMQTVMLPASGGAVVEFTVTRPGTYPIVTHQFNHAQKGAVAMLKVTETGEDDGTETSGH
  stoichiometry N: 3
